According to patent publication US20260297176 (published 2026):

T1: human IL-11 (human)
T1 chain: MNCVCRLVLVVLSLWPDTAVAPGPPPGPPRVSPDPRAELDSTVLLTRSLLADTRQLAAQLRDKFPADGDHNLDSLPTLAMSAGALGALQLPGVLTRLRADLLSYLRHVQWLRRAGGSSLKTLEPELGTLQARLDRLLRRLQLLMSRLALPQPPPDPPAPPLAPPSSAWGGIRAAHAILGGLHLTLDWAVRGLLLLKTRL

T2: mouse IL-11 (mouse, UniProt P47873)
T2 chain: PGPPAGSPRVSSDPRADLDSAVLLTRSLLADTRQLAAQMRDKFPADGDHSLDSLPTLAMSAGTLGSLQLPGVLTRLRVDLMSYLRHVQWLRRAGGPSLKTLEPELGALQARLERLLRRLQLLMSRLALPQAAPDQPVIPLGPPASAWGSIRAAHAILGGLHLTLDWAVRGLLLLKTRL

B1: GVH5 (D54E)/GVL5 (antibody, V domains shown)
VH: QITLKESGPTLVKPTQTLTLTCTFSGFSLSTSGMVVGWIRQPPGKALEWLAAIDWEGEKYYSPSLKSRLTITKDTSKNQVVLTMTNMDPVDTATYYCARSGNYFEYWGQGTLVTVSS
VL: DIQMTQSPSSLSASVGDRVTITCRTSEDIYNALAWYQQKPGKAPQLLIYDANRLHIGVPSRFSGSGSGTDFTLTISSLQPEDFATYYCQQYYDYPNTFGQGTKLEIK
B2: CVH4 (D54E)/CVL3 + YTE (antibody, V domains shown)
VH: QVQLQESGPGLVKPSQTLSLTCSFSGFSLSTSGMVVSWIRQPPGKALEWLAAIDWEGEKYYNPSLKSRLTVTKDTSKNQVVLTMTNMDPVDTATYYCARSGNYFEYWGQGTLVTVSS
VL: DNQMTQSPSSLSASVGDRVTITCRTSEDIYNALAWYQQKPGKAPQLLIYDANRLHIGVPDRFSGSGSGTDFTLTISSLQAEDVAVYYCQQYYDYPNTFGQGTKLEIK
B3: GVH5 (D54E)/CVL3 (antibody, V domains shown)
VH: QITLKESGPTLVKPTQTLTLTCTFSGFSLSTSGMVVGWIRQPPGKALEWLAAIDWEGEKYYSPSLKSRLTITKDTSKNQVVLTMTNMDPVDTATYYCARSGNYFEYWGQGTLVTVSS
VL: DNQMTQSPSSLSASVGDRVTITCRTSEDIYNALAWYQQKPGKAPQLLIYDANRLHIGVPDRFSGSGSGTDFTLTISSLQAEDVAVYYCQQYYDYPNTFGQGTKLEIK
B4: CVH3 (D54E)/CVL3 + YTE (antibody, V domains shown)
VH: QVQLQESGPGLVKPSQTLSLTCSFSGFSLSTSGMVVSWIRQPPGKALEWLAAIDWEGEKYYNPSLKSRLTVTKDTSNTQVVLTMTNMDPVDTATYYCARSGNYFEYWGQGTLVTVSS
VL: DNQMTQSPSSLSASVGDRVTITCRTSEDIYNALAWYQQKPGKAPQLLIYDANRLHIGVPDRFSGSGSGTDFTLTISSLQAEDVAVYYCQQYYDYPNTFGQGTKLEIK
B5: GVH5 (D54E)/CVL3 + YTE (antibody, V domains shown)
VH: QITLKESGPTLVKPTQTLTLTCTFSGFSLSTSGMVVGWIRQPPGKALEWLAAIDWEGEKYYSPSLKSRLTITKDTSKNQVVLTMTNMDPVDTATYYCARSGNYFEYWGQGTLVTVSS
VL: DNQMTQSPSSLSASVGDRVTITCRTSEDIYNALAWYQQKPGKAPQLLIYDANRLHIGVPDRFSGSGSGTDFTLTISSLQAEDVAVYYCQQYYDYPNTFGQGTKLEIK
B6: CVH3 (D54E)/CVL3 (antibody, V domains shown)
VH: QVQLQESGPGLVKPSQTLSLTCSFSGFSLSTSGMVVSWIRQPPGKALEWLAAIDWEGEKYYNPSLKSRLTVTKDTSNTQVVLTMTNMDPVDTATYYCARSGNYFEYWGQGTLVTVSS
VL: DNQMTQSPSSLSASVGDRVTITCRTSEDIYNALAWYQQKPGKAPQLLIYDANRLHIGVPDRFSGSGSGTDFTLTISSLQAEDVAVYYCQQYYDYPNTFGQGTKLEIK
B7: CVH4 (D54E)/CVL3 (antibody, V domains shown)
VH: QVQLQESGPGLVKPSQTLSLTCSFSGFSLSTSGMVVSWIRQPPGKALEWLAAIDWEGEKYYNPSLKSRLTVTKDTSKNQVVLTMTNMDPVDTATYYCARSGNYFEYWGQGTLVTVSS
VL: DNQMTQSPSSLSASVGDRVTITCRTSEDIYNALAWYQQKPGKAPQLLIYDANRLHIGVPDRFSGSGSGTDFTLTISSLQAEDVAVYYCQQYYDYPNTFGQGTKLEIK
B8: GVH5 (D54E)/GVL5 + YTE (antibody, V domains shown)
VH: QITLKESGPTLVKPTQTLTLTCTFSGFSLSTSGMVVGWIRQPPGKALEWLAAIDWEGEKYYSPSLKSRLTITKDTSKNQVVLTMTNMDPVDTATYYCARSGNYFEYWGQGTLVTVSS
VL: DIQMTQSPSSLSASVGDRVTITCRTSEDIYNALAWYQQKPGKAPQLLIYDANRLHIGVPSRFSGSGSGTDFTLTISSLQPEDFATYYCQQYYDYPNTFGQGTKLEIK
B9: CSJ-B-s-3G8 (antibody, V domains shown)
VH: QVTLKESGPGMLQPSKTVSLTCSFSGFSMSTSGMVVSWIRQPSGKSLEWLAAIDWDGEKYYNPSLKSRLTVSKDTSNTQVFLKISSVDIADSATYYCARSGNYFDYWGQGVMVTVSS
VL: DIQMTQSPASLSASLGETVTIECRASEDIYNGLVWYQQKPGKSPQLLIYDANRLHTGVPSRFSGGGSGTQYSLKINSLQSEDVASYFCQQYYDYPNTFGAGTKLELK
B10: VH0/VL0 (antibody, V domains shown)
VH: QVILKESGPGMLQPSKTLSLTCSFSGFSLSTSGMVVSWIRQPSGKSLEWLAAIDWDGEKYYNPSLKSRLTVSKDTSNTQVFLQITTVDIADTATYYCARSGNYFEYWGQGVIVTVSS
VL: DNQMTQSPASLSASLGETVTIECRTSEDIYNALAWYQQKPGKSPQLLIYDANRLHIGVPSRFSGSGSGTQFSLKINSLQSEDVASYFCQQYYDYPNTFGAGTKLELN
B11: CSI-s-9B9 (antibody, V domains shown)
VH: EVHLQQSGPELVKPGASVKMSCKASGYTFTSYVIHWVKQRPGQGLEWIGNIYPYNDDTNYNEKFKGKATLTSDKSSSTAYMELSSLTSEESAVYFCTRERATYGDLAWFAYWGQGTLVTVSA
VL: NIVLTQSPASLAVSLGQRATISCRASENIDSYGNSFMHWYQQKPGQPPKLLIYLASILESGVPARFSGSGSRTDFTLTIDPVEADDAATYYCQQNNEDPYTFGGGTKLEIK
B12: CSJ-A-s-10D10 (antibody, V domains shown)
VH: QVQLKESGPGLVQPSQTLSLTCTVSGFSLTNYHVHWVRQPPGKGLEWMGVMWIDGDTSYNSALRSRLSISRDTSKSQVFLKMSSLQTEDTATYYCAREGLNWFAYWGRGTLVTVSS
VL: DIQMTQSPASLSVSLEEVVTITCKASQGIDDYLSWYQQKPGKSPQLLISDVTSLADGVPSRFSGSRSGTQYSLKISRPQVDDSGIYYCLQSYSTPYTFGAGTKLELK
B13: CSJ-A-s-2B11 (antibody, V domains shown)
VH: QVQLKESGPGLVQPSQTLSLTCTVSGFSLDNYNVHWVRQPTGGGLEWLGGIWTDGITDYTSPLRSRLSISRDTSKSQVFLKMKSLQTEDIATYYCARSYYYSLYYFDYWGQGVMVTVSS
VL: DIQMTQSPASLSASLGETVTIECRASEDIYSNLAWYQQKPGDSPQLLIYDAHRLAEGVPSRFSGSGSGTQYSLKINSLHSEDVASYFCQQYDNYNTFGVGTKLDLK

Experiments:
human IL-11 [1] = biological target: T1, human IL-11; experiment: SPR 25C
mouse IL-11 [2] = biological target: T2, mouse IL-11; experiment: SPR
human IL-11 [3] = biological target: T1, human IL-11; experiment: SPR
mouse IL-11 [4] = biological target: T2, mouse IL-11; experiment: SPR
human IL-11 [5] = biological target: T1, human IL-11; experiment: SPR
human IL-11 [6] = biological target: T1, human IL-11; experiment: SPR
mouse IL-11 [7] = biological target: T2, mouse IL-11; experiment: SPR steady state

Row | Binder | Kd (human IL-11 [1]) | Kd (human IL-11 [3]) | Kd (mouse IL-11 [4]) | also measured
1 | B1 | 96.6 pM | – | – | –
2 | B2 | 3.34 pM | – | – | –
3 | B3 | 18.1 pM | – | – | –
4 | B4 | 1.42 pM | – | – | –
5 | B5 | 9.89 pM | – | – | –
6 | B6 | 5.01 pM | – | – | –
7 | B7 | 7.48 pM | – | – | –
8 | B8 | 79.2 pM | – | – | –
9 | B9 | – | 17.4 pM | 50.2 pM | Kd (mouse IL-11 [2]): 159 pM
10 | B10 | 7.58 pM | – | – | –
11 | B11 | – | 145 pM | 3770 pM | –
12 | B12 | – | 424 pM | 875 pM | –
13 | B13 | – | 23.8 pM | 28200 pM | Kd (human IL-11 [5]): 21.3 pM; Kd (human IL-11 [6]): 21.4 pM; Kd (mouse IL-11 [7]): 28200 pM
